In PMC10808355:
Each block holds one substance with its values, some of them ahead of it.

Experiments:
[1] = target: Chaetomium thermophilum 80S ribosome (Ct80S) (C. thermophilum (endogenous in C. thermophilum)); experiment: cryo-EM structure; 400 nM C. thermophilum 80S ribosomes (with random nascent chains) mixed with full-length CtMAP2 (66 µM final), 30 min at RT, then vitrified
[2] = target: Chaetomium thermophilum 80S ribosome (Ct80S) (C. thermophilum (endogenous in C. thermophilum)); experiment: cryo-EM structure; 400 nM C. thermophilum 80S ribosomes mixed with CtMAP2∆N (66 µM final), 30 min at RT, then vitrified; particles separated by translocation state (rotated, non-rotated)
[3] = target: Human 80S ribosome, non-translating (Hs80S) (human (endogenous in HeLa)) (UniProt P62750); experiment: cryo-EM structure; 200 nM non-translating H. sapiens 80S ribosomes mixed with HsMAP2 (59 µM final), 30 min at RT, then vitrified

percent of purified ribosomes that accommodate MAP2 [1]: 100%
Substance: Chaetomium thermophilum methionine aminopeptidase 2, full length (CtMAP2) (enzyme)

fold of the percentage in the A-site, against the full-length CtMAP2 dataset [2]: 4 fold
percent of 80S ribosomes with CtMAP2∆N at the PTE [2]: 70%
Substance: CtMAP2(∆N1-73), autoproteolysis product of C. thermophilum MAP2 without the N-terminal extension (domain or fragment)

percent of purified ribosomes that accommodate MAP2 [3]: 100%
Substance: Human methionine aminopeptidase 2 (HsMAP2) (from UniProt P50579 1-478) (enzyme)
